Source: the supplement of paper PMC10065799, “High-throughput profiling of sequence recognition by tyrosine kinases and SH2 domains using bacterial peptide display” (eLife, 2023)

Tests used:
SHP2-C SH2 = experiment: SH2 binding enrichment of the phosphorylated peptide, bacterial display (enrichment ratio); higher = better substrate or ligand; peptides without Tyr show the background
c-Src SH2 = experiment: as above
Grb2 SH2 = Grb2 SH2 (UniProt P62993); experiment: as above
FGFR1 = FGFR1 (UniProt P11362); experiment: phosphorylation enrichment, bacterial display (enrichment ratio); higher = better substrate or ligand; peptides without Tyr show the background
c-Abl (mouse) = experiment: as above
Fyn = Fyn (UniProt P06241); experiment: as above
MERTK = MERTK (UniProt Q12866); experiment: as above
Fer (mouse) = experiment: as above
Fes = Fes (UniProt P07332); experiment: as above
Hck = Hck (UniProt P08631); experiment: as above
AncSZ = experiment: as above
Jak2 = Jak2 (UniProt O60674); experiment: as above
EPHB1 = EPHB1 (UniProt P54762); experiment: as above
c-Src = experiment: as above
FGFR3 = FGFR3 (UniProt P22607); experiment: as above
EPHB2 = EPHB2 (UniProt P29323); experiment: as above
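Wherever SH2 binding enrichment of the phosphorylated peptide, bacterial display is given: peptide library displayed on the E. coli surface as eCPX fusions, selected cells deep-sequenced, score is each peptide's frequency after selection divided by its frequency in the input.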
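Wherever phosphorylation enrichment, bacterial display is given: 11-residue human phosphosite peptides and single-mutation variants displayed on the E. coli surface, counted by deep sequencing, each peptide's frequency after selection divided by its frequency in the unselected input library; frequency after pTyr selection over input frequency; kinase dosed for 20-30% of maximal phosphorylation in three min.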

Sequence of Fes (P07332 whole entry, looked up): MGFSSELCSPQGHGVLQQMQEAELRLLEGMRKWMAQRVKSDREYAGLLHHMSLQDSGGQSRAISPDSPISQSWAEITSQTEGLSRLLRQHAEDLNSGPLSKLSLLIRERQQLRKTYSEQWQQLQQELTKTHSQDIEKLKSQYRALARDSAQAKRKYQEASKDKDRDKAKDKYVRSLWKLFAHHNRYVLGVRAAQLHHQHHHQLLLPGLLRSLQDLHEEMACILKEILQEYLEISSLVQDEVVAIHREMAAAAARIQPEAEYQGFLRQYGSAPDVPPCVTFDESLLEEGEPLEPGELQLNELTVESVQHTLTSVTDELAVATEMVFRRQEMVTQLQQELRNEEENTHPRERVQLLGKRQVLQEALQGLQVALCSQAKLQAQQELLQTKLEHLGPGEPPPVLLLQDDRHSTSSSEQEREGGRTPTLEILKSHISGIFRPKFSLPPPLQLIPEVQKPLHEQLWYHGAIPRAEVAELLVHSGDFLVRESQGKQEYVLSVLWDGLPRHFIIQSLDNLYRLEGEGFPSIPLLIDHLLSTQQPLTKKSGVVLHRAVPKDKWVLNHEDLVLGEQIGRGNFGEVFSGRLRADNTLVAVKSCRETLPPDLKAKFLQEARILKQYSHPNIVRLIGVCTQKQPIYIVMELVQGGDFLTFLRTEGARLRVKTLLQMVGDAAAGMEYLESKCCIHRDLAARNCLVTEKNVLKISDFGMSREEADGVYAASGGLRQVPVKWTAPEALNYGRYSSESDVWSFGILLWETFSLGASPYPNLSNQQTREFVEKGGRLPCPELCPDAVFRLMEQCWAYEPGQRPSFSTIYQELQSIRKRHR
Sequence of Fyn (P06241 whole entry, looked up): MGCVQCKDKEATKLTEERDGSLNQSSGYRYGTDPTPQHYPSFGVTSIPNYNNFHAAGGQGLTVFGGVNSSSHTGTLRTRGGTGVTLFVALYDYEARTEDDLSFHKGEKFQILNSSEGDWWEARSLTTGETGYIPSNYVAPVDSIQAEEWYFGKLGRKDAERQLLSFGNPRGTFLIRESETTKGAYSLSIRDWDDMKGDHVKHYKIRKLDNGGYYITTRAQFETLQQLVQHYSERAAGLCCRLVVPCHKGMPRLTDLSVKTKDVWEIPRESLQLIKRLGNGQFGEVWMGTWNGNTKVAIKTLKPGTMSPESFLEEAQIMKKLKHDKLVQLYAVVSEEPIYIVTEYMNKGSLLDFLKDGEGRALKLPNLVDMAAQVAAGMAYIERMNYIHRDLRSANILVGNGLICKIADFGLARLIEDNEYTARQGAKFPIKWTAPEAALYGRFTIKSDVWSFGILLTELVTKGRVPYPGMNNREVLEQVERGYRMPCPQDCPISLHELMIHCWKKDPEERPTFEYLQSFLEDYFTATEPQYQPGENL
Sequence of Jak2 (O60674 whole entry, looked up): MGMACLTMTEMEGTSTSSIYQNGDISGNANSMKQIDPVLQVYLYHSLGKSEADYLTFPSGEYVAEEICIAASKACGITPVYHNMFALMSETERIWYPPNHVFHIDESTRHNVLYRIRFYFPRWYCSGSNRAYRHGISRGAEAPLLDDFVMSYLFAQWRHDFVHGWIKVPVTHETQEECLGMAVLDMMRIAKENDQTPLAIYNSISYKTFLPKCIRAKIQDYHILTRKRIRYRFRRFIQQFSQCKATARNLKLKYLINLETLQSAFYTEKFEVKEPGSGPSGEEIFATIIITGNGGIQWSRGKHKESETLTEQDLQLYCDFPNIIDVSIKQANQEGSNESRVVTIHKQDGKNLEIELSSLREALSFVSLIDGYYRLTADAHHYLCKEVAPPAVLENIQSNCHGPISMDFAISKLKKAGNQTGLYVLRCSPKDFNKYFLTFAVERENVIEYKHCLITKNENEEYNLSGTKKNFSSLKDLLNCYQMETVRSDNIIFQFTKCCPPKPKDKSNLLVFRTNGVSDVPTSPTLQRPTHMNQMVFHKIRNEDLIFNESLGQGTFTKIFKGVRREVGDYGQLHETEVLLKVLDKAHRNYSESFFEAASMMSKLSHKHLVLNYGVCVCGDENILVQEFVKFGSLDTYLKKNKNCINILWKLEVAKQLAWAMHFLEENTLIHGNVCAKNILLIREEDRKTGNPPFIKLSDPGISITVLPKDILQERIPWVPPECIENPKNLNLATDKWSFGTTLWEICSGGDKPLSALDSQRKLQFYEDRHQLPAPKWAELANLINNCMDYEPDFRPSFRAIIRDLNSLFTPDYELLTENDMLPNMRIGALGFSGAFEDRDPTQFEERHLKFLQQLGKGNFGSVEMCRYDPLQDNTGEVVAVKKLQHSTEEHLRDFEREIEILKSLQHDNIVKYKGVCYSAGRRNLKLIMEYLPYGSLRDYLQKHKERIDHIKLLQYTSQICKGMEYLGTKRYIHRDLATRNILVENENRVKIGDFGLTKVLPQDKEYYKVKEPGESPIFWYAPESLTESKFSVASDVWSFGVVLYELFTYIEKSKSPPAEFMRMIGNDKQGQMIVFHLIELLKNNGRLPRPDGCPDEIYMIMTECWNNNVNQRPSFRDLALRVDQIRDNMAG
Sequence of FGFR1 (P11362 whole entry, looked up): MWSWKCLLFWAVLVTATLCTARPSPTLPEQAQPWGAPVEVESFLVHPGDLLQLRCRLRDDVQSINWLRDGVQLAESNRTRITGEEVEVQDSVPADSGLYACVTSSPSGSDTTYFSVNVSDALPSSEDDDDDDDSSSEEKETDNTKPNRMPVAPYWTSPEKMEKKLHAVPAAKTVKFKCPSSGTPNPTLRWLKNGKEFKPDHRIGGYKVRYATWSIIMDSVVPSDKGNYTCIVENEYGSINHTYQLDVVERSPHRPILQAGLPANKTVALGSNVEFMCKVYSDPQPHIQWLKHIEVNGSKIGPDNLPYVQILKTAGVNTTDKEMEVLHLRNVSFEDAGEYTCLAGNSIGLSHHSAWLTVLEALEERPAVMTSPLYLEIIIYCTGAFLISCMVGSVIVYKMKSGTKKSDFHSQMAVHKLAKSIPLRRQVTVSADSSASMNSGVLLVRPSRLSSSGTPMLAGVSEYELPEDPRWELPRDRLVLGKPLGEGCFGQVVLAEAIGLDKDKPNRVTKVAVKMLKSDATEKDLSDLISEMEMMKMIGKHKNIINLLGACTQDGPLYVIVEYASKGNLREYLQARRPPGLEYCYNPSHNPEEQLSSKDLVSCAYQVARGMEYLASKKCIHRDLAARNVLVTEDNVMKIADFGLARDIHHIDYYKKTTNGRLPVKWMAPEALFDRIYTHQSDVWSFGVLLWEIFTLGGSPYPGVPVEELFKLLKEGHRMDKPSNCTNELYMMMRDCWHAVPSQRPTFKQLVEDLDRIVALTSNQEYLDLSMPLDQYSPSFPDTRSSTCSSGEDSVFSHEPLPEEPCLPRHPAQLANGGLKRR
Sequence of Hck (P08631 whole entry, looked up): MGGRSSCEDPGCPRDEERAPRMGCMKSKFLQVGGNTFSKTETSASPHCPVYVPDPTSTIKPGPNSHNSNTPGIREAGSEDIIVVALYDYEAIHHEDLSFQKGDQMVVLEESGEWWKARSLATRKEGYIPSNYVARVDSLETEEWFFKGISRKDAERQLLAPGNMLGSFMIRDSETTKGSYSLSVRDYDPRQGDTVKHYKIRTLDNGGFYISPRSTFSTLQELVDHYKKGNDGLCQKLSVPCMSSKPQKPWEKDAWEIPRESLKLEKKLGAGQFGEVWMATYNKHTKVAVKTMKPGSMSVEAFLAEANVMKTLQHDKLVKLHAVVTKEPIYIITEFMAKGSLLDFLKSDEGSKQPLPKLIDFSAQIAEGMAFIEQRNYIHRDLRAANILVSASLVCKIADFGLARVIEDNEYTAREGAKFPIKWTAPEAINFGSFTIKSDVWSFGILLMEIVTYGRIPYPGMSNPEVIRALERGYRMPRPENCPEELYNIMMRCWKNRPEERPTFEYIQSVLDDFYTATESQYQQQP
Sequence of Grb2 SH2 (P62993 whole entry, looked up): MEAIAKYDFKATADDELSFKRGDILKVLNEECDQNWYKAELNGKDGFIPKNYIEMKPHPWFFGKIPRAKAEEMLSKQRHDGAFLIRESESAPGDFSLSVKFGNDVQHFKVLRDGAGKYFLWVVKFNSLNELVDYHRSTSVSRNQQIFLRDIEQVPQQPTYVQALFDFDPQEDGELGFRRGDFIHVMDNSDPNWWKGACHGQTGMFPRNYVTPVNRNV
Sequence of EPHB1 (P54762 whole entry, looked up): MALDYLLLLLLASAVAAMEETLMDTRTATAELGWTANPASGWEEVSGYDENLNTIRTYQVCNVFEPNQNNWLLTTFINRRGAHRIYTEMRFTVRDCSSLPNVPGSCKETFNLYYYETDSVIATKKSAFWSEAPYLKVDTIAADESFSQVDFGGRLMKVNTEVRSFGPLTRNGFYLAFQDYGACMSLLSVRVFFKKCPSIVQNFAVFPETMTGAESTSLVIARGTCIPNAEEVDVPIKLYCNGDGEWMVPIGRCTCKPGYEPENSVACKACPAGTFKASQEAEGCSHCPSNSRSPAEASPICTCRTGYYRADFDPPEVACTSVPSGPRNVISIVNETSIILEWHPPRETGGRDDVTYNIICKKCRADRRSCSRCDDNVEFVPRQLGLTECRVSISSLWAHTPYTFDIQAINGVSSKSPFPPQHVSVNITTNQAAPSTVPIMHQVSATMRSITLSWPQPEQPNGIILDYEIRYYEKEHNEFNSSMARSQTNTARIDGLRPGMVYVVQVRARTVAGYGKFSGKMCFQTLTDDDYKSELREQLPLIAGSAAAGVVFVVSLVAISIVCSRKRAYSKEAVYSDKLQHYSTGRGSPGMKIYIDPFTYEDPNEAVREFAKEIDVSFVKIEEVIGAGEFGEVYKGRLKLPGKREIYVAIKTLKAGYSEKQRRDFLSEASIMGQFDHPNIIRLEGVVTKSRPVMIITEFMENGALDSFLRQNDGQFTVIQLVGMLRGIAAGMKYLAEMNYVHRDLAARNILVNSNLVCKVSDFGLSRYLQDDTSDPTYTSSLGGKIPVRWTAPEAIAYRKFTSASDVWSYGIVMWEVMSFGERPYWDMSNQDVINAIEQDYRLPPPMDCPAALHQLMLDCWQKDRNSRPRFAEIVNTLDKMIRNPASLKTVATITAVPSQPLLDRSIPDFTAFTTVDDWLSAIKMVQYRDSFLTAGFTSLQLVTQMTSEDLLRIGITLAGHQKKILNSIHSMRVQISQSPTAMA

Sequence	SH2 binding enrichment (SHP2-C SH2)	SH2 binding enrichment (c-Src SH2)	SH2 binding enrichment (Grb2 SH2)	phosphorylation enrichment (FGFR1)	phosphorylation enrichment (c-Abl (mouse))	phosphorylation enrichment (Fyn)	phosphorylation enrichment (MERTK)	phosphorylation enrichment (Fer (mouse))	phosphorylation enrichment (Fes)	phosphorylation enrichment (Hck)	phosphorylation enrichment (AncSZ)	phosphorylation enrichment (Jak2)	phosphorylation enrichment (EPHB1)	phosphorylation enrichment (c-Src)	phosphorylation enrichment (FGFR3)	phosphorylation enrichment (EPHB2)
VSSSDYFSFVL [USP24_Y2138_Y2134S]	0.679	0.52	0.715	12.3	4.78	5.34	4.39	1.1	1.66	2.49	3.42	8.84	4.7	7.49	10.5	3.25
QNVADYMRCLM [RPL5_Y207_Y210C]	0.725	0.624	0.912	0.753	0.911	0.729	0.42	0.797	1.62	0.652	1.68	1.37	1.03	0.444	0.969	0.801
GAVGHYVLAER [HFE_Y342_M339V]	0.851	2.88	0.634	0.449	0.46	0.47	0.573	0.363	0.711	0.454	0.865	0.453	0.395	0.503	1.23	0.415
EIIPFYGMSSY [FNDC3B_Y175_T179S]	0.828	6.51	0.855	0.489	0.587	0.777	0.728	0.933	0.914	0.967	0.877	0.748	0.6	0.616	0.672	0.77
DFAIVYGTIIL [GPR179_Y460_G455D]	0.584	0.343	0.591	0.565	0.846	0.692	0.402	0.727	1.51	0.665	1.52	1.16	0.732	0.483	1.1	0.777
EASEQHLTKAS [NRCAM_Y739_Y739H]	0.598	0.53	0.903	0.433	0.663	0.48	0.343	0.497	0.859	0.447	0.887	0.692	0.38	0.396	0.551	0.496
TVFENYVADIE [RHOA_Y42]	0.618	0.541	0.798	0.642	0.861	0.58	0.631	0.513	1.15	0.588	1.42	1.46	0.647	0.521	0.925	0.664
NVGGKYSYLKV [GRM3_Y478]	1.43	2.27	1.08	0.449	0.524	0.358	0.448	0.446	0.65	0.515	0.625	0.635	0.415	0.351	0.476	0.39
KEEEDYREENN [BMS1_Y651_K652R]	0.822	0.458	0.754	0.582	0.877	0.5	0.601	0.585	1.24	0.65	1.3	1.15	0.63	0.536	0.79	0.528
KIPGRYFETGS [PAX2_Y72_L69P_YF]	0.726	0.606	1.37	0.471	0.633	0.466	0.464	0.427	1.31	0.396	0.604	0.783	0.382	0.521	0.531	0.546
SSSGGYGGGYG [KRT19_Y61_A60G]	0.62	0.462	0.924	0.408	0.374	0.352	0.342	0.333	0.534	0.379	0.456	0.479	0.326	0.377	0.335	0.337
FCGFSYDDIPD [TMEM230_Y112_R108C_YF]	0.674	10.3	1.11	0.592	1.02	0.481	0.558	0.76	1.27	0.63	1.46	1.22	0.694	0.537	0.918	0.707
LWPIWYRCRRP [MRGPRX1_Y130_H133R]	0.857	0.421	0.565	0.461	0.542	0.522	0.685	0.331	0.512	0.805	0.618	0.408	0.58	0.431	0.507	0.49
LVGTPYWMAPE [PAK5_Y608]	1.58	0.673	0.76	2.09	0.694	0.683	0.856	0.573	1.15	0.459	0.91	1.14	0.775	2.71	1.84	0.437
VEDQYYCVDCY [FHL1_Y208]	1.47	1.42	1.35	12	1.1	2.34	3.19	1.11	1.48	1.46	5.02	1.86	1.02	2.77	10.3	0.754
IRTIDYRYTVS [IDS_Y497_W502S]	0.823	0.69	0.73	0.593	0.46	0.558	0.411	0.45	1.13	0.532	0.789	0.713	0.437	0.385	0.601	0.666
